According to patent US20090317363A1:

target: CCR5 (UniProt P51681); test: cell-based or functional assay

| Molecule | CCR5 sequestration (%) (% of control surface CCR5) | CCR5 signalling (%) (% of Emax of PSC-RANTES) | anti-HIV potency (IC50, nM) by cell fusion assay [nM] | anti-HIV potency (IC50, nM) by viral replication assay [nM] |
| --- | --- | --- | --- | --- |
| RANTES derivative: signature sequence SEQ ID NO: 64 fused to positions 10-68 of native RANTES (SEQ ID NO: 1) (ligand) QGPPLMSLQSCCFAYIARPLPRAHIKEYFYTSGKCSNPAVVFVTRKNRQVCANPEKKWVREYINSLEMS | 28 | 17.2 | 0.04 | – |
| RANTES derivative: signature sequence SEQ ID NO: 8 fused to positions 10-68 of native RANTES (SEQ ID NO: 1) (ligand) QGPPLMWMQSCCFAYIARPLPRAHIKEYFYTSGKCSNPAVVFVTRKNRQVCANPEKKWVREYINSLEMS | 0 | 2.5 | 0.03 | 0.278 |
| RANTES derivative: signature sequence SEQ ID NO: 13 fused to positions 10-68 of native RANTES (SEQ ID NO: 1) (ligand) QGPPLMWRGSCCFAYIARPLPRAHIKEYFYTSGKCSNPAVVFVTRKNRQVCANPEKKWVREYINSLEMS | 9 | < 5 | 0.07 | – |
| RANTES derivative: signature sequence SEQ ID NO: 21 fused to positions 10-68 of native RANTES (SEQ ID NO: 1) (ligand) QGPPGDWLQVCCFAYIARPLPRAHIKEYFYTSGKCSNPAVVFVTRKNRQVCANPEKKWVREYINSLEMS | 54 | 14.2 | 0.54 | – |
| RANTES derivative: signature sequence SEQ ID NO: 17 fused to positions 10-68 of native RANTES (SEQ ID NO: 1) (ligand) QGPPGDIVLACCFAYIARPLPRAHIKEYFYTSGKCSNPAVVFVTRKNRQVCANPEKKWVREYINSLEMS | 70 | 87.7 | 0.02 | 129 |
| RANTES derivative: signature sequence SEQ ID NO: 66 fused to positions 10-68 of native RANTES (SEQ ID NO: 1) (ligand) QGPPLMSVQSCCFAYIARPLPRAHIKEYFYTSGKCSNPAVVFVTRKNRQVCANPEKKWVREYINSLEMS | 42 | 33.4 | 0.07 | – |
| RANTES derivative: signature sequence SEQ ID NO: 29 fused to positions 10-68 of native RANTES (SEQ ID NO: 1) (ligand) QGPPLGSMGPCCFAYIARPLPRAHIKEYFYTSGKCSNPAVVFVTRKNRQVCANPEKKWVREYINSLEMS | 36 | 22.6 | 0.39 | – |
| RANTES derivative: signature sequence SEQ ID NO: 14 fused to positions 10-68 of native RANTES (SEQ ID NO: 1) (ligand) QGPLLMWLQVCCFAYIARPLPRAHIKEYFYTSGKCSNPAVVFVTRKNRQVCANPEKKWVREYINSLEMS | 8 | 1.4 | 0.13 | – |
| RANTES derivative: signature sequence SEQ ID NO: 20 fused to positions 10-68 of native RANTES (SEQ ID NO: 1) (ligand) QGPLSGQSTPCCFAYIARPLPRAHIKEYFYTSGKCSNPAVVFVTRKNRQVCANPEKKWVREYINSLEMS | 71 | 95.6 | 0.66 | – |
| RANTES derivative: signature sequence SEQ ID NO: 28 fused to positions 10-68 of native RANTES (SEQ ID NO: 1) (ligand) QGPPGSWSSVCCFAYIARPLPRAHIKEYFYTSGKCSNPAVVFVTRKNRQVCANPEKKWVREYINSLEMS | 59 | 45 | 0.03 | 0.213 |
| RANTES derivative: signature sequence SEQ ID NO: 23 fused to positions 10-68 of native RANTES (SEQ ID NO: 1) (ligand) QGPPLMSTQSCCFAYIARPLPRAHIKEYFYTSGKCSNPAVVFVTRKNRQVCANPEKKWVREYINSLEMS | 35 | 5.3 | 0.03 | 0.625 |
| RANTES derivative: signature sequence SEQ ID NO: 11 fused to positions 10-68 of native RANTES (SEQ ID NO: 1) (ligand) QGPPLMALQVCCFAYIARPLPRAHIKEYFYTSGKCSNPAVVFVTRKNRQVCANPEKKWVREYINSLEMS | 9 | 1.6 | 0.03 | – |
| RANTES derivative: signature sequence SEQ ID NO: 68 fused to positions 10-68 of native RANTES (SEQ ID NO: 1) (ligand) QGPPLMSGQSCCFAYIARPLPRAHIKEYFYTSGKCSNPAVVFVTRKNRQVCANPEKKWVREYINSLEMS | 24 | 10.6 | 0.17 | – |
| RANTES derivative: signature sequence SEQ ID NO: 26 fused to positions 10-68 of native RANTES (SEQ ID NO: 1) (ligand) QGPLSGWLQVCCFAYIARPLPRAHIKEYFYTSGKCSNPAVVFVTRKNRQVCANPEKKWVREYINSLEMS | 41 | 9.4 | 0.58 | – |
| RANTES derivative: signature sequence SEQ ID NO: 16 fused to positions 10-68 of native RANTES (SEQ ID NO: 1) (ligand) QGPPGDTVLWCCFAYIARPLPRAHIKEYFYTSGKCSNPAVVFVTRKNRQVCANPEKKWVREYINSLEMS | 70 | 96.3 | 0.02 | 0.091 |
| RANTES derivative: signature sequence SEQ ID NO: 22 fused to positions 10-68 of native RANTES (SEQ ID NO: 1) (ligand) QGPPLMSFQSCCFAYIARPLPRAHIKEYFYTSGKCSNPAVVFVTRKNRQVCANPEKKWVREYINSLEMS | 12 | 2.4 | 0.02 | 0.47 |
| RANTES derivative: signature sequence SEQ ID NO: 12 fused to positions 10-68 of native RANTES (SEQ ID NO: 1) (ligand) QGPPLMWLGGCCFAYIARPLPRAHIKEYFYTSGKCSNPAVVFVTRKNRQVCANPEKKWVREYINSLEMS | 4 | 4.1 | 0.03 | 0.204 |
| RANTES derivative: signature sequence SEQ ID NO: 3 fused to positions 10-68 of native RANTES (SEQ ID NO: 1) (ligand) QGPPLMWMQVCCFAYIARPLPRAHIKEYFYTSGKCSNPAVVFVTRKNRQVCANPEKKWVREYINSLEMS | 3 | < 5 | 0.02 | – |
| RANTES derivative: signature sequence SEQ ID NO: 24 fused to positions 10-68 of native RANTES (SEQ ID NO: 1) (ligand) QGPPLMSLQVCCFAYIARPLPRAHIKEYFYTSGKCSNPAVVFVTRKNRQVCANPEKKWVREYINSLEMS | 35 | 2.4 | 0.03 | 0.174 |
| RANTES derivative: signature sequence SEQ ID NO: 15 fused to positions 10-68 of native RANTES (SEQ ID NO: 1) (ligand) QGPPLMQTTPCCFAYIARPLPRAHIKEYFYTSGKCSNPAVVFVTRKNRQVCANPEKKWVREYINSLEMS | 2 | 2.4 | 0.65 | – |
| RANTES derivative: signature sequence SEQ ID NO: 10 fused to positions 10-68 of native RANTES (SEQ ID NO: 1) (ligand) QGPPLMWLQSCCFAYIARPLPRAHIKEYFYTSGKCSNPAVVFVTRKNRQVCANPEKKWVREYINSLEMS | 0 | 2.3 | 0.03 | 0.403 |
| RANTES derivative: signature sequence SEQ ID NO: 69 fused to positions 10-68 of native RANTES (SEQ ID NO: 1) (ligand) QGPPLMSGQVCCFAYIARPLPRAHIKEYFYTSGKCSNPAVVFVTRKNRQVCANPEKKWVREYINSLEMS | 38 | 20.1 | 0.22 | – |
| RANTES derivative: signature sequence SEQ ID NO: 19 fused to positions 10-68 of native RANTES (SEQ ID NO: 1) (ligand) QGPPGDGGSVCCFAYIARPLPRAHIKEYFYTSGKCSNPAVVFVTRKNRQVCANPEKKWVREYINSLEMS | 66 | 85.1 | 0.28 | – |
| RANTES derivative: signature sequence SEQ ID NO: 67 fused to positions 10-68 of native RANTES (SEQ ID NO: 1) (ligand) QGPPLMSAQSCCFAYIARPLPRAHIKEYFYTSGKCSNPAVVFVTRKNRQVCANPEKKWVREYINSLEMS | 15 | 10.3 | 0.12 | – |
| RANTES derivative: signature sequence SEQ ID NO: 18 fused to positions 10-68 of native RANTES (SEQ ID NO: 1) (ligand) QGPPGSYDYSCCFAYIARPLPRAHIKEYFYTSGKCSNPAVVFVTRKNRQVCANPEKKWVREYINSLEMS | 69 | 90.1 | 0.08 | – |
| RANTES derivative: signature sequence SEQ ID NO: 65 fused to positions 10-68 of native RANTES (SEQ ID NO: 1) (ligand) QGPPLMSLQACCFAYIARPLPRAHIKEYFYTSGKCSNPAVVFVTRKNRQVCANPEKKWVREYINSLEMS | 30 | 11.5 | 0.04 | – |

target: CCR5 (UniProt P51681); test: cell-based or functional assay; remark: another data set of the same source

| Molecule | CCR5 sequestration (%) (% of control surface CCR5) | CCR5 signalling (%) (% of Emax of PSC-RANTES) | anti-HIV potency (IC50, nM) by cell fusion assay [nM] | anti-HIV potency (IC50, nM) by viral replication assay [nM] |
| --- | --- | --- | --- | --- |
| Met-RANTES (from UniProt P13501 24-91) (ligand) | 26 | 15 | 75.1 | – |
| NNY-RANTES (n-nonanoyl-RANTES(2-68)) (from UniProt P13501 25-91) (ligand) | 77 | 84.5 | 0.29 | – |
| AOP-RANTES, the aminooxypentane oxime of [glyoxylyl]1RANTES(2-68) (from UniProt P13501 25-91) (ligand) | 71 | 80.7 | 1.12 | – |
| PSC-RANTES (ligand) | 75 | 100 | 0.02 | 0.281 |
